Data set [1] deals with T1, DCC-PfSSB (wild-type PfSSB labeled with IDCC) (Plasmodium falciparum, UniProt Q8I415 77-284). The experiment in a line: stopped-flow kinetics (koff 0.014 s-1 / kon 199 uM-1s-1); low salt, 20 mM NaCl; koff by wtSSB displacement; High salt buffer (composition not in material) or low salt buffer (20 mM NaCl); pH and temperature not in material. Conditions: protein: recombinant; tags: DCC (diethylaminocoumarin) at C93; chain copies: 4; single strand.

Data set [2] addresses T1, DCC-PfSSB (wild-type PfSSB labeled with …). The experiment in a line: fluorescence titration; high salt, 125 pM DCC-PfSSB; single titration; High salt buffer (composition not in material) or low salt buffer (20 mM NaCl); pH and temperature not in material. Conditions: protein: recombinant; tags: DCC (diethylaminocoumarin) at C93; chain copies: 4; single strand.
The target in data set [3] is T2, PfSSB wild type, unlabeled (Plasmodium falciparum, UniProt Q8I415 77-284). The experiment in a line: competition; high salt, equimolar labeled and unlabeled PfSSB; High salt buffer (composition not in material) or low salt buffer (20 mM NaCl); pH and temperature not in material. Conditions: protein: recombinant; chain copies: 4; single strand.
Data set [4] concerns the target PfSSB C93A W166C, 5-IATR labeled (Plasmodium falciparum, UniProt Q8I415 77-284, C93A;W166C). The data set can be described thus: fluorescence change; high salt; High salt buffer (composition not in material) or low salt buffer (20 mM NaCl); pH and temperature not in material. Conditions: protein: recombinant; tags: tetramethylrhodamine (5-IATR) at C166; chain copies: 4; single strand.

Data set [5] addresses PfSSB C93A G103C, IDCC labeled (Plasmodium falciparum, UniProt Q8I415 77-284, C93A;G103C). Described as above. To be noted: protein: recombinant; tags: DCC at C103; chain copies: 4; single strand.
Data set [6] addresses PfSSB C93A G103C, 6-IATR labeled (Plasmodium falciparum, UniProt Q8I415 77-284, C93A;G103C). The data set is described as above. To be noted: protein: recombinant; tags: tetramethylrhodamine (6-IATR) at C103; chain copies: 4; single strand.
Data set [7] addresses PfSSB C93A G102C, IDCC labeled (Plasmodium falciparum, UniProt Q8I415 77-284, C93A;G102C). The data set is described as above. To be noted: protein: recombinant; tags: DCC at C102; chain copies: 4; single strand.
The target of data set [8] is PfSSB wild type, 5-IATR labeled (Plasmodium falciparum, UniProt Q8I415 77-284). The data set is described as above. To be noted: protein: recombinant; tags: tetramethylrhodamine (5-IATR) at C93; chain copies: 4; single strand.
For data set [9], the target named is PfSSB Y156R, IDCC labeled (Plasmodium falciparum, UniProt Q8I415 77-284, Y156R). The data set is described as above. Conditions: protein: recombinant; tags: DCC at C93; chain copies: 4; single strand.
Data set [10] has as its target T1, DCC-PfSSB (wild-type PfSSB labeled with …). Described as above. Conditions: protein: recombinant; tags: DCC (diethylaminocoumarin) at C93; chain copies: 4; single strand.
The target in data set [11] is T2, PfSSB wild type, unlabeled. The experiment in a line: competition; calculated from DCC-PfSSB Kd and 25-fold ratio; high salt; High salt buffer (composition not in material) or low salt buffer (20 mM NaCl); pH and temperature not in material. To be noted: protein: recombinant; chain copies: 4; single strand.
Data set [12] deals with T1, DCC-PfSSB (wild-type PfSSB labeled with …). The experiment in a line: stopped-flow kinetics (koff/kon); high salt (salt inferred); High salt buffer (composition not in material) or low salt buffer (20 mM NaCl); pH and temperature not in material. To be noted: protein: recombinant; tags: DCC (diethylaminocoumarin) at C93; chain copies: 4; single strand.
Data set [13] shares this target. The experiment in a line: fluorescence titration; high salt, 250 nM protein; two dT35 per tetramer; kon 109 uM-1s-1; High salt buffer (composition not in material) or low salt buffer (20 mM NaCl); pH and temperature not in material. Conditions: protein: recombinant; tags: DCC (diethylaminocoumarin) at C93; chain copies: 4; single strand; two copies per tetramer at saturation.

B1: dT70 (ssDNA)
DNA: TTTTTTTTTTTTTTTTTTTTTTTTTTTTTTTTTTTTTTTTTTTTTTTTTTTTTTTTTTTTTTTTTTTTTT
One may read the Kd as the concentration at which binding is half-saturated. As for B1, the equilibrium dissociation constant (Kd) in data set [1] was 70 pM; in data set [2], 1.2 ± 0.5 pM; in data set [11], under 0.2 pM; in data set [12], under 4.6 pM. Besides, the binding signal in data set [3] is > 25 fold tighter than DCC-PfSSB; in data set [4] it was 12.8 ± 0.5 fluorescence ratio +/- dT70; in data set [5], 3.5 ± 0.08 fluorescence ratio +/- dT70; in [6] it was 3.5 ± 0.4 fluorescence ratio +/- dT70; in data set [7] it was 1.8 ± 0.09 fluorescence ratio +/- dT70; in data set [8], 9.1 ± 0.2 fluorescence ratio +/- dT70. Besides, the binding signal in data set [9] is 12.3 ± 0.07 fluorescence ratio +/- dT70; in [10], 20.1 ± 0.1 fluorescence ratio +/- dT70.
Turning to TTTTTTTTTTTTTTTTTTTTTTTTTTTTTTTTTTT (ssDNA) [dT35], the binding result in [13] was “binds”.

(Values after article PMC5821389, “Fluorescent single-stranded DNA-binding protein from Plasmodium falciparum as a biosensor for single-stranded DNA”.)
